Paper PMC10438374, “FAN1 removes triplet repeat extrusions via a PCNA- and RFC-dependent mechanism” (Proceedings of the National Academy of Sciences of the …, 2023)

Target: T1, MutLα (MLH1/PMS2 heterodimer), recombinant human (human, UniProt P40692 1-756; P54278 1-862)
T1 construct: MLH1 subunit of human MutLα; PMS2 subunit of human MutLα; Heterodimer; source: recombinant (details in SI Appendix)
Test: far-Western, overlay or dot blot; far-western analysis of FAN1 and MutLα (SI Appendix, Fig. S4E); which protein was spotted is not told in the main text
Conditions: both partners purified

B1: FAN1 (FANCD2 and FANCI-associated nuclease 1), recombinant full-length human (enzyme, UniProt Q9Y2M0 1-1017, looked up)
chain: MMSEGKPPDKKRPRRSLSISKNKKKASNSIISCFNNAPPAKLACPVCSKMVPRYDLNRHLDEMCANNDFVQVDPGQVGLINSNVSMVDLTSVTLEDVTPKKSPPPKTNLTPGQSDSAKREVKQKISPYFKSNDVVCKNQDELRNRSVKVICLGSLASKLSRKYVKAKKSIDKDEEFAGSSPQSSKSTVVKSLIDNSSEIEDEDQILENSSQKENVFKCDSLKEECIPEHMVRGSKIMEAESQKATRECEKSALTPGFSDNAIMLFSPDFTLRNTLKSTSEDSLVKQECIKEVVEKREACHCEEVKMTVASEAKIQLSDSEAKSHSSADDASAWSNIQEAPLQDDSCLNNDIPHSIPLEQGSSCNGPGQTTGHPYYLRSFLVVLKTVLENEDDMLLFDEQEKGIVTKFYQLSATGQKLYVRLFQRKLSWIKMTKLEYEEIALDLTPVIEELTNAGFLQTESELQELSEVLELLSAPELKSLAKTFHLVNPNGQKQQLVDAFLKLAKQRSVCTWGKNKPGIGAVILKRAKALAGQSVRICKGPRAVFSRILLLFSLTDSMEDEDAACGGQGQLSTVLLVNLGRMEFPSYTINRKTHIFQDRDDLIRYAAATHMLSDISSAMANGNWEEAKELAQCAKRDWNRLKNHPSLRCHEDLPLFLRCFTVGWIYTRILSRFVEILQRLHMYEEAVRELESLLSQRIYCPDSRGRWWDRLALNLHQHLKRLEPTIKCITEGLADPEVRTGHRLSLYQRAVRLRESPSCKKFKHLFQQLPEMAVQDVKHVTITGRLCPQRGMCKSVFVMEAGEAADPTTVLCSVEELALAHYRRSGFDQGIHGEGSTFSTLYGLLLWDIIFMDGIPDVFRNACQAFPLDLCTDSFFTSRRPALEARLQLIHDAPEESLRAWVAATWHEQEGRVASLVSWDRFTSLQQAQDLVSCLGGPVLSGVCRHLAADFRHCRGGLPDLVVWNSQSRHFKLVEVKGPNDRLSHKQMIWLAELQKLGAEVEVCHVVAVGAKSQSLS
notes: FAN1 (FANCD2 and FANCI-associated nuclease 1), human, full length; also called FAN1 nuclease; source: recombinant; prepared as per previously established procedures (details in SI Appendix)
binding result: binds
